Test results reported in the supplement of paper PMC11246515.
± gives the standard deviation of the averaged measurements.

Test: total protein half-life in vivo (active degradation + dilution); higher = more stable protein
[1] = E. coli NCM3722 delta-clpP, growth: N-lim chemostat, doubling time 6 h
[2] = E. coli NCM3722 delta-hslV, growth: N-lim chemostat, doubling time 6 h
[3] = E. coli NCM3722 delta-lon, growth: N-lim chemostat, doubling time 6 h
[4] = E. coli NCM3722 delta-smpB, growth: N-lim chemostat, doubling time 6 h
[5] = wild type E. coli NCM3722, growth: C-lim chemostat, doubling time 3 h
[6] = wild type E. coli NCM3722, growth: C-lim chemostat, doubling time 6 h
[7] = wild type E. coli NCM3722, growth: C-lim chemostat, doubling time 12 h
[8] = wild type E. coli NCM3722, growth: N-lim chemostat, doubling time 6 h
[9] = wild type E. coli NCM3722, growth: N-lim chemostat, doubling time 12 h
[10] = wild type E. coli NCM3722, growth: P-lim chemostat, doubling time 6 h
[11] = wild type E. coli NCM3722, growth: P-lim chemostat, doubling time 12 h
[12] = E. coli NCM3722 delta-clpP delta-lon delta-hslV, growth: N-lim chemostat, doubling time 6 h

Row | Sequence | total protein half-life in vivo [1] [h] | total protein half-life in vivo [2] [h] | total protein half-life in vivo [3] [h] | total protein half-life in vivo [4] [h] | total protein half-life in vivo [5] [h] | total protein half-life in vivo [6] [h] | total protein half-life in vivo [7] [h] | total protein half-life in vivo [8] [h] | total protein half-life in vivo [9] [h] | total protein half-life in vivo [10] [h] | total protein half-life in vivo [11] [h] | total protein half-life in vivo [12] [h]
1 | MRYIRQLCCVSLLCLSGSAVAANVRLQVEGLSGQLEKNVRAQLSTIESDEVTPDRRFRARVDDAIREGLKALGYYQPTIEFDLRPPPKKGRQVLIAKVTPGVPVLIGGTDVVLRGGARTDKDYLKLLDTRPAIGTVLNQGDYENFKKSLTSIALRKGYFDSEFTKAQLGIALGLHKAFWDIDYNSGERYRFGHVTFEGSQIRDEYLQNLVPFKEGDEYESKDLAELNRRLSATGWFNSVVVAPQFDKARETKVLPLTGVVSPRTENTIETGVGYSTDVGPRVKATWKKPWMNSYGHSLTTSTSISAPEQTLDFSYKMPLLKNPLEQYYLVQGGFKRTDLNDTESDSTTLVASRYWDLSSGWQRAINLRWSLDHFTQGEITNTTMLFYPGVMISRTRSRGGLMPTWGDSQRYSIDYSNTAWGSDVDFSVFQAQNVWIRTLYDRHRFVTRGTLGWIETGDFDKVPPDLRFFAGGDRSIRGYKYKSIAPKYANGDLKGASKLITGSLEYQYNVTGKWWGAVFVDSGEAVSDIRRSDFKTGTGVGVRWESPVGPIKLDFAVPVADKDEHGLQFYIGLGPEL [P0ADE4] | 6.81 ± 0.13 | 6.538 ± 0.011 | 6.38 ± 0.61 | 5.85 ± 0.15 | 3.013 ± 0.0066 | 6.21 ± 0.37 | 12.8 ± 0.55 | 6.59 ± 1 | 13.5 ± 0.56 | 6.31 ± 0.16 | 13.8 ± 0.96 | 
2 | MEWLVKKSCCNKQDNRHVLMLCDAGGAIKMIAEVKSDFAVKVGDLLSPLQNALYCINREKLHTVKVLSASSYSPDEWERQCKVAGKTQ |  | 3.24 | 3.35 | 4.9 | 2.04 ± 0.53 | 4.32 | 7.64 ± 1.4 |  | 4.88 | 4.39 | 7.16 ± 1.1 | 5.09 ± 0.77
3 | MSRTIFCTFLQREAEGQDFQLYPGELGKRIYNEISKEAWAQWQHKQTMLINEKKLNMMNAEHRKLLEQEMVNFLFEGKEVHIEGYTPEDKK [P0A8P3] | 4.957 ± 0.0071 | 4.94 ± 1.4 | 5.01 ± 0.2 | 3.99 ± 0.37 | 3.07 ± 0.31 | 5.14 ± 0.14 | 8.58 ± 1.5 | 3.63 ± 0.074 | 6.39 ± 0.51 | 5.7 | 9.27 ± 1.4 | 6.2 ± 0.24
4 | MKTFPLQSLTIIEAQQKQFALVDSICRHFPGSEFLTGGDLGLTPGLNQPRVTQRVEQVLADAFHAQAAALVQGAGTGAIRAGLAALLKPGQRLLVHDAPVYPTTRVIIEQMGLTLITVDFNDLSALKQVVDEQQPDAALVQHTRQQPQDSYVLADVLATLRAAGVPALTDDNYAVMKVARIGCECGANVSTFSCFKLFGPEGVGAVVGDADVINRIRATLYSGGSQIQGAQALEVLRGLVFAPVMHAVQAGVSERLLALLNGGAVPEVKSAVIANAQSKVLIVEFHQPIAARVLEEAQKRGALPYPVGAESKYEIPPLFYRLSGTFRQANPQSEHCAIRINPNRSGEETVLRILRESIASI | 5.48 | 4.47 | 4.71 |  |  |  |  | 4.59 | 8.25 | 5.35 | 12.4 | 5.7 ± 0.96
5 | MRTLLAILLFPLLVQAAGEGMWQASSVGITLNHRGESMSSAPLSTRQPASGLMTLVAWRYQLIGPTPSGLRVRLCSQSRCVELEGQSGTTVAFSGIAAAEPLRFIWEVPGGGRLIPPLKVQRNEVIVNYR |  |  |  |  |  | 4.74 | 8.78 ± 2.5 |  |  |  |  | 
6 | MKKNSYLLSCLAIAVSSACHAEVLTYPDPLGSSQSDFGGTGLLQMPNARIAPEGEFSVNYRDNDQYRFYSTSVALFPWLEGTIRYTDVRTRKYSQWEDFSGDQSYKDKSFDFKLRLWEEGYWLPQVAFGKRDIAGTGLFDGEYLVASKQAGPFDFTLGMAWGYAGNAGNITNPFCRVSDKYCHRAESHDAGDISFSDIFRGPASIFGGIEYQTPWNPLRLKLEYDGNNYQNDFAGKLPQASHFNVGAVYRAASWADLNLSYERGNTLMFGFTLRTNFNDLRPALRDTPKPAYQPAPESEGLQYTTVANQLTALKYNAGFDAPEIQLRDKTLYMSGQQYKYRDSREAVDRANRILVNNLPQGVEKISVTQKREHMAMVTTETDVASLRKQLAGTAPGQSEPLQQQRVEAEDLSAFGRGYRIREDRFSYSFNPTLSQSLGGPEDFYMFQLGLMSSARYWFTDHLLLDGGIFTNIYNNYDKFKSSLLPADSTLPRVRTHIRDYVRNDVYLNNLQANYFADLGNGFYGQVYGGYLETMYAGVGSELLYRPLDACWALGVDVNYVKQRDWDNMMRFTDYSTPTGFVTAYWNPPTLNGVLMKLSVGQYLAKDKGATIDVAKRFDSGVAVGVWAAISNVSKDDYGEGGFSKGFYISIPFDLMTIGPNRNRAVVSWTPLTRDGGQMLSRKYQLYPMTAEREVPVGQ |  | 6.08 ± 0.65 |  |  | 3.09 |  | 10.3 | 6.71 |  |  | > 16 | 4.97 ± 0.12
7 | MQRRDFLKYSVALGVASALPLWSRAVFAAERPTLPIPDLLTTDARNRIQLTIGAGQSTFGGKTATTWGYNGNLLGPAVKLQRGKAVTVDIYNQLTEETTLHWHGLEVPGEVDGGPQGIIPPGGKRSVTLNVDQPAATCWFHPHQHGKTGRQVAMGLAGLVVIEDDEILKLMLPKQWGIDDVPVIVQDKKFSADGQIDYQLDVMTAAVGWFGDTLLTNGAIYPQHAAPRGWLRLRLLNGCNARSLNFATSDNRPLYVIASDGGLLPEPVKVSELPVLMGERFEVLVEVNDNKPFDLVTLPVSQMGMAIAPFDKPHPVMRIQPIAISASGALPDTLSSLPALPSLEGLTVRKLQLSMDPMLDMMGMQMLMEKYGDQAMAGMDHSQMMGHMGHGNMNHMNHGGKFDFHHANKINGQAFDMNKPMFAAAKGQYERWVISGVGDMMLHPFHIHGTQFRILSENGKPPAAHRAGWKDTVKVEGNVSEVLVKFNHDAPKEHAYMAHCHLLEHEDTGMMLGFTV | 5.63 ± 0.14 | 6.68 ± 0.32 | 6.57 ± 0.91 | 5.62 ± 0.1 | 2.84 ± 0.38 | 5.977 ± 0.041 | 11.2 ± 1.3 | 5.944 ± 0.022 | 13.8 ± 1 | 5.657 ± 0.043 | 14.4 ± 1.6 | 
8 | MKKLVLAALLASFTFGASAAEKINFGVSATYPPFESIGANNEIVGFDIDLAKALCKQMQAECTFTNHAFDSLIPSLKFRKYDAVISGMDITPERSKQVSFTTPYYENSAVVIAKKDTYKTFADLKGKRIGMENGTTHQKYIQDQHPEVKTVSYDSYQNAFIDLKNGRIDGVFGDTAVVNEWLKTNPQLGVATEKVTDPQYFGTGLGIAVRPDNKALLEKLNNALAAIKADGTYQKISDQWFPQ | 5.1 ± 0.92 | 5.91 ± 0.093 | 6.25 ± 0.23 | 5.73 ± 0.62 | 2.99 ± 0.12 | 6.13 ± 0.83 | 9.32 ± 1.2 | 5.47 ± 0.24 | 11.9 ± 0.32 | 5.3886 ± 0.0029 | 11 ± 1.2 | 4.29 ± 0.69
